Data on 7 molecules can be found in US20220289843A1 (ELPIS BIOPHARMACEUTICALS, published 2022).

Assay [1] addresses endogenous CD19 expressed on cell surface (Daudi cells, Raji cells, DLBCL tissue) (UniProt P15391). Nature of the assay: FACS on Raji cells, secondary reagent alone (background).
Assay [2] deals with T1, full-length human CD19 fused with flag and Myc tags at the C-terminus, expressed on HEK293 or K562 cells (human, UniProt P15391 20-556).
T1 construct: whole, on cells; also called CD19/HEK293 cells; CD19-expressing HEK293 cells; not shown: C-terminal flag and Myc tags (pCMV6-Entry vector)
T1 sequence (looked up): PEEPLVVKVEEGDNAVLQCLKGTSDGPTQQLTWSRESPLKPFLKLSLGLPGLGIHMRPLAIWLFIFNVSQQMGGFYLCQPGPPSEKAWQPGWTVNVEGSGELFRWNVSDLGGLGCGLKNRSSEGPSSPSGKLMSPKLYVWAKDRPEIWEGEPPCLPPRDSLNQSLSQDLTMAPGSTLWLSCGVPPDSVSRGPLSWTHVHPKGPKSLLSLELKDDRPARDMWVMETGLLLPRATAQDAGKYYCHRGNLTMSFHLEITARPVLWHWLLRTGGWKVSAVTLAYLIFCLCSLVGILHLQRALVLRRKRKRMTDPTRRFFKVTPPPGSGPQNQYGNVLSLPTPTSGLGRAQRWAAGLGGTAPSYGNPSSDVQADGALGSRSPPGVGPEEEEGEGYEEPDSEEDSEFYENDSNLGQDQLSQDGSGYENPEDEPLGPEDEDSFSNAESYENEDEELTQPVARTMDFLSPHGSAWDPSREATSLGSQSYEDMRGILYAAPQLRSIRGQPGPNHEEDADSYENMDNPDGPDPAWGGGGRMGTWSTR
Briefly: FACS on CD19/HEK293 cells, scFv titration, anti-His Alexa 488 detection. As to the method: The diluted samples were incubated with CD19-expressing HEK293 cells (CD19/HEK293 cells) in 96 wells plate on ice for 1 hour. Cells were spun down at 1200 rpm for 5 minutes at 4° C. to remove unbound antibodies. Cells were then washed once with 200 μL of full medium per well. Samples were mixed with an Alexa fluor 488-conjugated anti-His antibody (secondary antibody, 100 μL, 1:1000 diluted) and incubated at 4° C. for 30 minutes in dark. Samples were then spun down at 1200 rpm for 5 minutes at 4° C. and washed twice with 200 uL of 1×PBS per well. The resultant samples were reconstituted in 200 uL of 1×PBS and read on Guava EasyCyte. Analysis was done by counting only Alexa Fluor 488-positive cells and then plotted in Prism 8.1 software.

In assay [3] the target is T2, endogenous CD19 expressed on cell surface (Daudi cells, Raji cells, DLBCL tissue) (UniProt P15391 20-556, limits assumed).
T2 construct: whole, on cells; also called CD19+ Raji cells; CD19-positive DLBCL tissue
T2 sequence (looked up): T1 sequence (looked up)
Briefly: FACS on CD19+ Raji cells, BiTE serially diluted from 200 nM; CD19+ Raji cells, FACS. As to the method:
(§1) A solution containing 200 nM of purified anti-CD19/CD3 BiTE antibodies were serial diluted in full medium and incubated with Raji cells in 96 wells plate on ice for one hour. Cells were spun down at 1200 rpm for 5 minutes at 4° C. to remove primary antibodies. Cells were then washed once with 200 uL of full medium per well. Samples were detected with premixed anti-His Biotin Streptavidin Alexa fluor 647 by adding 100 uL of diluted secondary antibody and incubated at 4° C. for 30 minutes in the dark. Samples were spun down at 1200 rpm for 5 minutes at 4° C. and washed twice with 200 uL of 1×PBS per well. Reconstituted samples in 200 uL of 1× PBS and read on Attune NxT cytometer. Analysis was done by Attune NxT software plotting the overlay histogram of CD19 or CD3 binding with secondary antibodies.

Assay [4] addresses T3, CD3 on CD3+ Jurkat T cells (Homo sapiens (Human), UniProt P07766 23-207).
T3 construct: also called CD3+ Jurkat cells
Nature of the assay: FACS on CD3+ Jurkat cells, anti-His biotin/streptavidin Alexa Fluor 647, positive cell counts. The method, then:
as §1
A similarly FACS assay was performed to examine the binding activity of the exemplary bispecific anti-CD19/anti-CD3 antibodies to CD3+ Jurkat T cells, following the descriptions above.

For the next assay, the target named is T4, human CD3ε/Fc (human, UniProt P07766 23-126, limits assumed).
T4 construct: Immobilised on the ELISA plate at 2 ug/mL; not shown: Fc
Nature of the assay: ELISA, human CD3ε/Fc immobilised, BiTE serially diluted. As to the method:
Further, an ELISA assay was developed to determine the EC50 of anti-CD19/CD3 BiTE antibodies. Briefly, 384 well plate was immobilized with human CD3ε/Fc at final concentration of 2 μg/mL in 1×PBS in total volume of 25 uL per well. The plate was incubated overnight at 4° C. followed by blocking with 80 uL of superblock per well for 1 hour. Anti-CD19/CD3 BiTE proteins were serial diluted, and 25 μL was added to CD3ε immobilized wells and incubated for 1 hour with shaking. The CD3ε binding was detected by adding 25 μL of anti-Flag HRP diluted at 1:5000 in 1×PBST. In between each step, the plate was washed 3 times with 1×PBST in a plate washer. The plate was then developed with 20 μL of TMB substrate for 5 mins and stopped by adding 20 μL of 2N sulfuric acid. The plate was read at OD450 nm Biotek plate reader and then plotted in Prism 8.1 software.
In general terms: In an ELISA, binding on a coated surface is turned into a signal by an enzyme label.

The target in assay [5] is T2, endogenous CD19 expressed on cell …. Nature of the assay: FACS on Raji cells, anti-His biotin/streptavidin Alexa 647 detection. As to the method: as §1
Assay [6] has the same target. Nature of the assay: FACS on CD19+ Raji cells, BiTE serially diluted from 200 nM. The method, then: as §1
For assay [7], the target named is T1, full-length human CD19 fused with flag …. Briefly: FACS titration on CD19/HEK293 cells, anti-His Alexa Fluor 488, positive cell counts; 20 nM FMC63 IgG present as competitor. As to the method:
Purified anti-CD19 scFv antibodies were titrated from 100 nM with 2-fold serial dilution. […] Cells were spun down at 1200 rpm for 5 minutes at 4° C. Samples were mixed with an Alexa fluor 488-conjugated anti-His antibody (100 uL, 1:1000 diluted) and incubated at 4° C. for 30 minutes in the dark. The samples were spun down at 1200 rpm for 5 minutes at 4° C. and washed twice with 200 μL of 1×PBS per well. The resultant samples were then reconstituted in 200 uL of 1×PBS and read on Guava EasyCyte. Analysis was done by counting only Alexa Fluor 488-positive cells and then plotted in Prism 8.1 software.

T3 sequence (P07766 23-207 limits assumed): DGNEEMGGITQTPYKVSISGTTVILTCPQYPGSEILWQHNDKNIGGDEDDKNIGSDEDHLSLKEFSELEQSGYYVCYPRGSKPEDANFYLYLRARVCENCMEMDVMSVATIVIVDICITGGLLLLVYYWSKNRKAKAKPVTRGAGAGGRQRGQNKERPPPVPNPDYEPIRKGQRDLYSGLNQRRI
T4 sequence (P07766 23-126 limits assumed): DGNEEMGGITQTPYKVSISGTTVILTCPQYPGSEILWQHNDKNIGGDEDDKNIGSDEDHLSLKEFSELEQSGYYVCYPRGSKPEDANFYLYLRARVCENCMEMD

For the molecule secondary antibody control, in assay [1], the % Raji cells stained positive stood at 1.3%.

B1: 2018EP188-B10 (scFv, VH-VL orientation) (scFv)
scFv: QVQLVQSGGGVVQPGKSLRLSCAASGFPFSSYTMHWVRQPPGEGLEWVALISYDGRNLYYADSVKGRFTISRDNSYNSLYLQLSGLRAEDTALYYCARDINRDHFYGMDLWGPGTTVTVSSGGGGSGGGGSGGGGSSYELTQPPSVSVAPGQTARIPCGGTNIGSKGVHWYQQKPGQAPVLVIYYDHSRPSGIPERFSGSNSGNTAALTISRVEAGDEADYYCQVWEGTSDHPVFGGGTKLTVL
notes: Purified from E. coli periplasmic expression; not shown: C-terminal flag and 6xHIS tag
The EC50 is the concentration needed to bring the measured effect to its halfway point. B1: the EC50 in assay [2] was 1.26 nM.

B2: BiTE EP381 (bispecific antibody)
chain: QVQLQQWGAGLLKPSETLSLTCAVYGGSFSGYYWTWIRQPPGKGLEWIGEINHGGSSNYNPSLKSRVTISVDTSKKQFSLNLNSVTAADTAVYYCARGLGYRSGWYEVENAFDIWGQGTMVTVSSGGGGSGGGGSGGGGSQPVLTQPPSVSVAPGQTARITCGGNKIESRSVHWYQQKPGQAPVLVVYDDGARPSGIPERLSGSNSGDTATLTISRVEPGDEADYYCQVWDGSSVIFGGGTKLTVLGGGGSEVQLVESGGGLVQPGGSLRLSCAASGFTFSTYAMNWVRQAPGKGLEWVGRIRSKYNNYATYYADSVKGRFTISRDDSKNTLYLQMNSLRAEDTAVYYCVRHGNFGDSYVSWFAYWGQGTLVTVSSGGGGSGGGGSGGGGSGGGGSQAVVTQEPSLTVSPGGTVTLTCGSSTGAVTTSNYANWVQQKPGKSPRGLIGGTNKRAPGVPARFSGSLLGGKAALTISGAQPEDEADYYCALWYSNHWVFGGGTKLTVLHHHHHH
notes: also called anti-CD19/anti-CD3 BiTE antibody
As usually defined, the EC50 (read off the curve) is the concentration that produces a half-maximal response. Read a high EC50 (read off the curve) as a less potent agent. B2: the EC50 is 0.766 nM in assay [3] and 5.57 nM with human CD3ε/Fc. Also, the “EC50 (read off the curve)” value in assay [4] is approximately 0.8 nM. Moreover, the “% Raji cells stained positive” value in assay [5] was approximately 92.3%.

B3: BiTE EP382 (bispecific antibody)
chain: QVQLVQSGGGVVQPGKSLRLSCAASGFPFSSYTMHWVRQPPGEGLEWVALISYDGRNLYYADSVKGRFTISRDNSYNSLYLQLSGLRAEDTALYYCARDINRDHFYGMDLWGPGTTVTVSSGGGGSGGGGSGGGGSSYELTQPPSVSVAPGQTARIPCGGTNIGSKGVHWYQQKPGQAPVLVIYYDHSRPSGIPERFSGSNSGNTAALTISRVEAGDEADYYCQVWEGTSDHPVFGGGTKLTVLGGGGSEVQLVESGGGLVQPGGSLRLSCAASGFTFSTYAMNWVRQAPGKGLEWVGRIRSKYNNYATYYADSVKGRFTISRDDSKNTLYLQMNSLRAEDTAVYYCVRHGNFGDSYVSWFAYWGQGTLVTVSSGGGGSGGGGSGGGGSGGGGSQAVVTQEPSLTVSPGGTVTLTCGSSTGAVTTSNYANWVQQKPGKSPRGLIGGTNKRAPGVPARFSGSLLGGKAALTISGAQPEDEADYYCALWYSNHWVFGGGTKLTVLHHHHHH
notes: as for B2
B3: the “EC50 (read off the curve)” value in assay [4] is approximately 4 nM. Also, the results for the EC50 (with human CD3ε/Fc; in assay [6]) were 7.58 nM and 3.81 nM, respectively. Also, the “% Raji cells stained positive” value in assay [5] is approximately 81.1%.

B4: BiTE EP383 (bispecific antibody)
chain: EVQLVESGAEVKKPGASVKVSCKASGYTFTSYYMHWVRQAPGQGLEWMGIINPSGGSTSYAQKFQGRVTITADESTSTAYMELSSLRSEDTAVYYCAREGGYKDFDYWGQGTLVTVSSGGGGSGGGGSGGGGSDIVMTQSPSSLSASVGDRVTVTCRASQSIDTYLNWYQQKPGKAPKLLIYTASTLQSGVPSRFSGSGSGTDFTLTISSLQPEDFATYYCQQSYSAPRTFGQGTKVEIKGGGGSEVQLVESGGGLVQPGGSLRLSCAASGFTFSTYAMNWVRQAPGKGLEWVGRIRSKYNNYATYYADSVKGRFTISRDDSKNTLYLQMNSLRAEDTAVYYCVRHGNFGDSYVSWFAYWGQGTLVTVSSGGGGSGGGGSGGGGSGGGGSQAVVTQEPSLTVSPGGTVTLTCGSSTGAVTTSNYANWVQQKPGKSPRGLIGGTNKRAPGVPARFSGSLLGGKAALTISGAQPEDEADYYCALWYSNHWVFGGGTKLTVLHHHHHH
notes: as for B2
B4: the “EC50 (read off the curve)” value in assay [4] was approximately 0.8 nM. The concentration for a half-maximal effect (EC50) with human CD3ε/Fc is 3.17 nM; in assay [6] it was 0.846 nM. For the same molecule, the “% Raji cells stained positive” value in assay [5] was approximately 80%.

B5: 2018EP142-D09 (scFv, VH-VL orientation) (scFv)
scFv: EVQLVESGAEVKKPGASVKVSCKASGYTFTSYYMHWVRQAPGQGLEWMGIINPSGGSTSYAQKFQGRVTITADESTSTAYMELSSLRSEDTAVYYCAREGGYKDFDYWGQGTLVTVSSGGGGSGGGGSGGGGSDIVMTQSPSSLSASVGDRVTVTCRASQSIDTYLNWYQQKPGKAPKLLIYTASTLQSGVPSRFSGSGSGTDFTLTISSLQPEDFATYYCQQSYSAPRTFGQGTKVEIK
notes: Purified from E. coli periplasmic expression; also called EP142-D9; not shown: C-terminal flag and 6xHIS tag
In assay [2], B5 yielded a 50% effective concentration (EC50) of 7.18 nM.

B6: 2018EP187-A12 (scFv, VH-VL orientation) (scFv)
scFv: QVQLQQWGAGLLKPSETLSLTCAVYGGSFSGYYWTWIRQPPGKGLEWIGEINHGGSSNYNPSLKSRVTISVDTSKKQFSLNLNSVTAADTAVYYCARGLGYRSGWYEVENAFDIWGQGTMVTVSSGGGGSGGGGSGGGGSQPVLTQPPSVSVAPGQTARITCGGNKIESRSVHWYQQKPGQAPVLVVYDDGARPSGIPERLSGSNSGDTATLTISRVEPGDEADYYCQVWDGSSVIFGGGTKLTVL
notes: Purified from E. coli periplasmic expression (pET22b); fully human scFv from mRNA display; also called 2018EP187-Al2; not shown: C-terminal flag and 6xHIS tag
Take B6: in assay [7], the concentration giving a half-maximal response (EC50 (read off the curve)) lay within 1.6 to 3 nM. This molecule also yielded an EC50 in assay [2] of 0.751 nM.
